Measured values as given in PMC2121072.

Target: full-length GST-hDlg fusion protein (human) (UniProt Q12959)
Test: pull-down

full-length GST-hDlg fusion protein (human), sequence (Q12959 whole entry, the tested form may be a part): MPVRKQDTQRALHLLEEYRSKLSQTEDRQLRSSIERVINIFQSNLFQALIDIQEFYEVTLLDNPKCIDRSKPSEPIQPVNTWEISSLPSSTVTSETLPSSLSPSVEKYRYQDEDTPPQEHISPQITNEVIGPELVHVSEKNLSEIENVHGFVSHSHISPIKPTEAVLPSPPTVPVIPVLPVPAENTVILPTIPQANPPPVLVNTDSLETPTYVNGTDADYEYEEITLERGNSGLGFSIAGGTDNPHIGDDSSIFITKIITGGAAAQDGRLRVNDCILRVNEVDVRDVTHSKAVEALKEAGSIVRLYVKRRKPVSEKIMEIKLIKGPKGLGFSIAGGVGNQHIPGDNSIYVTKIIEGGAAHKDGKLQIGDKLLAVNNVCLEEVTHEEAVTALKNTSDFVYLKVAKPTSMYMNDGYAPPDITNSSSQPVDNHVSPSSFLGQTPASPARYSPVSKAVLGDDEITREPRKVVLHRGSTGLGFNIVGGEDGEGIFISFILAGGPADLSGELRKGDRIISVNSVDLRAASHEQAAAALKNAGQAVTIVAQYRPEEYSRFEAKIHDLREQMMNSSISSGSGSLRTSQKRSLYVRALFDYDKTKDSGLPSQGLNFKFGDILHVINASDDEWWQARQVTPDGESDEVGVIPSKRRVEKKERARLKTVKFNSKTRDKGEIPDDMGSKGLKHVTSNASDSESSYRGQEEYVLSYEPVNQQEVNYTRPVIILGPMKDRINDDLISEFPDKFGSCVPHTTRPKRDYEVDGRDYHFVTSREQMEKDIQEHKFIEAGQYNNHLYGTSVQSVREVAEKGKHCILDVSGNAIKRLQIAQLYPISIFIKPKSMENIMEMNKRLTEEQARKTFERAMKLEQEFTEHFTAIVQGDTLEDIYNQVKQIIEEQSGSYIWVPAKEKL

Kd: 5.3 nM
Substance: 125I-labeled 30-kD amino-terminal domain of protein 4.1 (domain or fragment)
